From patent US20170275380A1 (ROCHE DIAGNOSTICS OPERATIONS, published 2017)
No end group written: not given here.

Legend:
[1] = molecular target: Bi-InsulinR(1356-1382)p1361 (phosphotyrosine at 1361; biotin); assay: SPR (Biacore 2000, 25 C); hybridoma supernatant 1:2 over biotinylated peptide on SA chip
Method: (§1) Further, surface plasmon resonance was used to determine the antigen specificity. A BIACORE™ 2000 instrument (GE Healthcare) was used with a BIACORE™ SA sensor mounted into the system at T=25° C. and was preconditioned at 100 μl/min with 3×1 min injection of 1 M NaCl in 50 mM NaOH and 1 min 10 mM HCl. The system buffer was HBS-ET (10 mM HEPES pH 7.4, 150 mM NaCl, 1 mM EDTA, 0.05% TWEEN® 20). The sample buffer was the system buffer+1 mg/ml CMD (Carboxymethyldextrane, Sigma).
(§2) Subsequently, biotinylated peptides were captured on the SA surface in the respective flow cells. The flow cells finally were saturated with 2 μM d-biotin. […] Flow cell 1 served as a reference. A blank buffer injection was used instead of an antigen injection to double reference the data by buffer signal subtraction. The data was evaluated according to the BIACORE™ evaluation software 1.1.1. The signal height was measured at the end of the injection time, Binding Late (RU).

[2] = molecular target: T1, IGF-1R(1340-1366); Glu(Bi-PEG-1340]amid (PEG-linker with biotin bound via glutamic acid corresponding to position 1340; C-terminal amide); assay: as above
T1 construct: also called IGF-1R peptide (biotinylated, non-phosphorylated); IGF-1R(1340-1366)PEG-Bi
T1 peptide: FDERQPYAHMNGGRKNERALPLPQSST
Method: as §1, §2

[3] = molecular target: T2, IGF-1R(1340-1366)[1346-pTyr; Glu(Bi-PEG-1340]amid (phosphotyrosine at 1346; PEG-linker with biotin bound via glutamic acid corresponding to position 1340; C-terminal amide); assay: as above
T2 construct: also called pIGF-1R peptide (biotinylated); phosphorylated IGF-1R peptide
T2 peptide: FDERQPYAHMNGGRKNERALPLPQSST
Method: as §1, §2

[4] = molecular target: T3, human HER3(1242-1267)-Bi-PEG-amide (human, Bi-PEG (biotin-PEG); C-terminal amide); assay: SPR kinetic screening (Biacore A100); mAb captured by anti-mouse IgG Fc; peptide grafted on streptavidin as analyte; Langmuir model; anti-HER3 antibody, HER3 peptide
T3 construct: Injected as analyte singly grafted on streptavidin; also called HER3 peptide
T3 peptide: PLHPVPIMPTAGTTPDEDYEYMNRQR
Method: (§3) A BIACORE™ A100 instrument under control of the software version V1.1 is used. A BIACORE™ CMS chip is mounted into the instrument and is hydrodynamically addressed conditioned according to the manufacturer's instructions. As a running buffer an HBS-EP buffer is used (10 mM HEPES (pH 7.4), 150 mM NaCl, 1 mM EDTA, 0.05% (w/v) P20). A polyclonal rabbit anti-mouse IgG Fc capture antibody is immobilized at 30 μg/ml in 10 mM sodium acetate buffer (pH 4.5) to spots 1, 2, 4 and 5 in flow cells 1, 2, 3 and 4 at 10,000 RU. The antibody is covalently immobilized via NHS/EDC chemistry. The sensor is deactivated thereafter with a 1 M ethanolamine solution. Spots 1 and 5 are used for the determination and spots 2 and 4 are used as reference. Prior to application to the sensor chip the hybridoma supernatants containing mAbs are diluted 1:2 in HBS-EP buffer. The diluted solution is applied at a flow rate of 30 μl/min for 1 min. Immediately thereafter the analyte, human HER3(1242-1267)-Bi-PEG-amide (SEQ ID NO:26) or human HER2(1223-1236)-Bi-PEG-amide (SEQ ID NO:25), singly grafted on streptavidin, is injected at a flow rate of 30 μl/min for 2 min. Thereafter, the signal is recorded for 5 min dissociation time. The sensor is regenerated by injecting a 10 mM glycine-HCl solution (pH 1.7) for 2 min, at a flow rate of 30 μl/min.

[5] = molecular target: T4, human HER2(1223-1236)-Bi-PEG-amide (human, also: Bi-PEG (biotin-PEG), place not given here); assay: SPR kinetic screening (Biacore A100); mAb captured by anti-mouse IgG Fc; peptide grafted on streptavidin as analyte; Langmuir model; anti-HER2 antibody, HER2 peptide
T4 construct: Injected as analyte singly grafted on streptavidin; also called HER2 peptide
T4 peptide: WDQDPPERGAPPST-NH2
Method: as §3

Chain of Bi-InsulinR(1356-1382)p1361 (phosphotyrosine at 1361; biotin) (peptide, as listed by the source): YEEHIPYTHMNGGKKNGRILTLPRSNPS

B1: mAb 1.4.168 (antibody, V domains shown)
VH: DVKLVESGGGLVKPGGSLKLSCAASGFTFSDYPMSWVRQTPEKRLEWVATITTGGTYTYYPDSIKGRFTISRDNAKNTLYLQMGSLQSEDAAMYYCTRVKTDLWWGLAYWGQGTLVTVSA
VL: QLVLTQSSSASFSLGASAKLTCTLSSQHSTYTIEWYQQQPLKPPKYVMELKKDGSHTTGDGIPDRFSGSSSGADRYLSISNIQPEDESIYICGVGDTIKEQFVYVFGGGTKVTVLG
notes: Murine monoclonal IgG from hybridoma; also called M-1.4.168-IgG; M-1.004.168-IgG
- Binding Late (RU) [1]: 0 RU
- Binding Late (RU) [2]: 199 RU
- Binding Late (RU) [3]: 265 RU

B2: antibody 7.2.32 (antibody, V domains shown)
VH: EVQLQESGGGLVQPKGSLQLSCAASGFTFNTYAMHWVRQAPGKGLEWVARIRTESSDYATDYADSVKDRFIISRDDSQNMLYLQMNNLKSEDTAIYYCVRSSGFDYWGQGTTLTVSS
VL: DIQMTQSPSLPVSLGDQASISCRSSQSLVHDNGNTYLHWFLQKPGQSPKLLIYKVSNRFSGVPDRFGGSGSGTDFTLKISGVEAEDLGVYFCSQGTHVPTFGGGTKLEIK
notes: Mouse monoclonal antibody, tested from hybridoma supernatant captured by anti-mouse IgG Fc; also called selected antibody directed against HER3
- koff [4]: 0.0023 s⁻¹

B3: antibody 4.1.43 (antibody, V domains shown)
VH: EVQLQQSGPVLVKPGASVKMSCRPSGYTFTDYNMHWVKQSHEKSLEWIGYINPKNGIISYNQKFKDKATLTVNKSSRTAYMELRSLTSEDSAVYFCAGDYWGQGTSVTVSS
VL: DVVMTQTPLSLPVSLGDQASISCRSSQSLVHSNGNTYLHWYLQKPGQSPKLLISKVSNRFSGVPDRFSGSGSGTDFTLKISRVEAEDLGVYFCSQSIHLPWTFGGGTKLEIK
notes: Mouse monoclonal antibody, tested from hybridoma supernatant captured by anti-mouse IgG Fc; also called selected antibody directed against HER2
- koff [5]: 0.000963 s⁻¹
